The record followed here is US20140193401A1 (published 2014).

Residue numbers refer to the chain shown, from its start. Like-named read-outs stand apart in the source and are kept apart here.

The term koff denotes a measure of how fast the partners let go of each other. A word on the Kd: it is a measure of binding affinity in units of concentration. Read a high Kd as a looser complex.

Assay [1] deals with T1, PTx-S1D (residues 1-220, D34E, I198V) (Bordetella pertussis, UniProt P04977 35-254).
T1 chain: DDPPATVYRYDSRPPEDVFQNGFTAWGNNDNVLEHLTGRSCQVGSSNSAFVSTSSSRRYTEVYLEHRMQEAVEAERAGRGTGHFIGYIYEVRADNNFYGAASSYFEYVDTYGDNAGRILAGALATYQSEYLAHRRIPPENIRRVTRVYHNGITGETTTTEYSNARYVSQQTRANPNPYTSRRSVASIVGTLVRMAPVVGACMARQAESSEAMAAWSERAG
In words: SPR (BIAcore 3000), mAb 1B7 immobilised on CM5 chip, toxin injected. (Surface plasmon resonance follows binding to a sensor surface in real time, without labels.)

For assay [2], the target named is T2, PTx-S1A (residues 1-220, M194I) (Bordetella pertussis, UniProt P04977 35-254).
T2 chain: T1 chain with E34D, M194I, V198I
The description is as above.

The target in assay [3] is T3, PTx-S1-220 (truncated PTx-S1, residues 1-220, strain Tohama I, variant B) (Bordetella pertussis, UniProt P04977 35-254).
T3 construct: also called WT PTx-S1-220; PTx-S1B
T3 sequence: T1 chain with E34D, V198I
Described as above.

For assay [4], the target named is T4, PTx-S1 9K/129G (residues 1-220, R9K, E129G) (Bordetella pertussis, UniProt P04977 35-254).
T4 chain: T1 chain with R9K, E34D, E129G, V198I
The assay is described as above.

The target in assay [5] is full length PTx-S1 (1-235) protomer (Bordetella pertussis, UniProt P04977 35-269). Described as above.
Assay [6] addresses T5, pertussis toxin holotoxin (Bordetella pertussis, UniProt P04977 35-269; P04978 31-226; P04979 32-227; P0A3R5 43-152; P04981 36-133).
T5 construct: also called PTx; PT
The assay is described as above.

Assay [7] concerns the target T6, pertussis toxin B-oligomer (Bordetella pertussis, UniProt P04978 31-226; P04979 32-227; P0A3R5 43-152; P04981 36-133). The description is as above.
Assay [8] deals with T5, pertussis toxin holotoxin. In words: competition ELISA (Friguet), 5 nM antibody with PT in solution, coated PT.
In assay [9] the target is T3, PTx-S1-220 (truncated PTx-S1, residues …).
The target of assay [10] is T6, pertussis toxin B-oligomer. In words: ELISA repeated with mAb 1B7; EC50 as percent of the PTx reference. (In an ELISA, binding on a coated surface is turned into a signal by an enzyme label.)
In assay [11] the target is T7, PTx-S1-220 Y8A (Bordetella pertussis, UniProt P04977 35-254).
T7 chain: T1 chain with Y8A, E34D, V198I
In words: Western blot with mAb 1B7; paragraph 150 says 1B7 was unable to bind Y8A. Background: A western blot detects proteins with antibodies after separation by electrophoresis.

Assay [12] has as its target T5, pertussis toxin holotoxin. In words: cell-based or functional assay.
Assay [13] addresses pertussis toxin subunit S5 (Bordetella pertussis, UniProt P04981 35-133). In words: Western blot of B-oligomer and PTx.
In assay [14] the target is pertussis toxin subunit S2 (Bordetella pertussis, UniProt P04978 28-226). In words: Western blot of B-oligomer and PTx.
For assay [15], the target named is pertussis toxin subunit S3 (Bordetella pertussis, UniProt P04979 29-227). In words: Western blot of B-oligomer and PTx.
The target of assay [16] is pertussis toxin subunit S4 (Bordetella pertussis, UniProt P0A3R5 43-152). In words: Western blot of B-oligomer and PTx.

B1: murine monoclonal antibody 1B7 (antibody, V domains shown)
VH: EVQLQQSGSELVRPGASVKLSCKASGYKFTSYWMHWVKQRPGQGLEWIGNIFPGSGSTNYDEKFNSKATLTVDTSSNTAYMQLSSLTSEDSAVYYCTRWLSGAYFDYWGQGTTLTVSS
VL: DIQMTQSPALMSASPGEKVTMTCSASSSVSFMYWYQQKPRSSPKPWIYLTSNLPSGVPARFSGSGSGTSYSLTISSMEAEDAATYYCQQWSSHPPTFGSGTKLEIKR
notes: also called mAb 1B7; 1B7 mAb
Regarding B1, the koff in assay [1] turned out to be 0.00095 s⁻¹; in assay [2], 0.00071 s⁻¹; in assay [3], 0.0014 s⁻¹; in assay [4] it was 0.0016 s⁻¹; in assay [5], 0.0019 s⁻¹; in assay [6] it was 0.0004 s⁻¹. The koff came to 0.0027 s⁻¹ in [7] and 0.0019 s⁻¹ in [9]. The molecule also yielded a Kd in assay [8] of 1.1 nM. Also, the “% EC50 PTx” value in assay [10] turned out to be 30%. Also, the binding result in [11], in assay [13], in assay [14], in [15] and in assay [16] was “no binding” in each case. Also, the “In Vitro Neutralization (nM), minimum protective concentration, CHO clustering assay” value in [12] turned out to be 5.2 nM.
